The supplement of paper PMC7877785
± gives the uncertainty stated by the source.

Test: self-splicing fitness, log relative to wild type (ln ratio); higher = more splicing; Tetrahymena group I intron in knt gene, E. coli kanamycin selection, DiMSum; sequences stand for … in CUCUCU…GGAGGGAAAAGUUAUCAGGCAUGCACCUGGUAGCUAGUCUUUAAACCAAUAGAUUGCAUCGGUUUAAAAGGCAAGACCGUCAAAUUGCGGGAAAGGGGUCAACAGCCGUUCAGUACCAAGUCUCAGGGGAAACUUUGAGAUGGCCUUGCAAAGGGUAUGGUAAUAAGCUGACGGACAUGGUCCUAACCACGCAGCCAAGUCCUAAGUCAACAGAUCUUCUGUUGAUAUGGAUGCAGUUCACAGACUAAAUGUCGGUCGGGGAAGAUGUAUUCUUCUCAUAAGAUAUAGUCGGACCUCUCCUUAAUGGGAGCUAGCGGAUGAAGUGAUGCAACACUGGAGCCGCUGGGAACUAAUUUGUAUGCGAAAGUAUAUUGAUUAGUUUUGGAGUACUCGUGGUCG
Outline: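 Colonies from six replicate transformations of E. coli BL21(DE3) were pooled and amplicon-sequenced on an Illumina HiSeq 2500. The library placed an intron with all eight P1ex-region nucleotides randomised inside the knt kanamycin-resistance gene on pET-22b(+), and cells grew overnight at 37°C or 30°C on LB agar with or without 25 μg/mL kanamycin (plus 100 μg/mL carbenicillin, 50 μM IPTG, 0.2% rhamnose). Fitness is the DiMSum error-weighted combination of wild-type-normalised replicate fold changes, kanamycin versus none.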

Sequence	self-splicing fitness (ln) (30 °C)	self-splicing fitness (ln) (37 °C)
UCCCAGCAAUAUUACGAUAA	-2.32 ± 0.12	-1.85 ± 0.14
UCCCAGCAAUAUUACGAUUU	-3.49 ± 0.11	-1.52 ± 0.097
UCCCAGCAAUAUUACGCAUA	-1.47 ± 0.16	-1.27 ± 0.15
UCCCAGCAAUAUUACGCCUU	-3.44 ± 0.2	-1.28 ± 0.15
UCCCAGCAAUAUUACGCGGA	-2.72 ± 0.17	-1.12 ± 0.12
UCCCAGCAAUAUUACGCUAA	-1.75 ± 0.11	-0.958 ± 0.091
UCCCAGCAAUAUUACGCUGC	-3.59 ± 0.24	-2.75 ± 0.34
UCCCAGCAAUAUUACGGACC	-3.42 ± 0.27	0.0123 ± 0.17
UCCCAGCAAUAUUACGGAUG	-3.49 ± 0.2	-1.31 ± 0.15
UCCCAGCAAUAUUACGGAUU	-2.66 ± 0.092	-0.582 ± 0.08
UCCCAGCAAUAUUACGGCGC	-1.67 ± 0.091	-0.401 ± 0.14
UCCCAGCAAUAUUACGGCUG		-1.42 ± 0.48
UCCCAGCAAUAUUACGGGAC	-2.69 ± 0.17	-2.49 ± 0.3
UCCCAGCAAUAUUACGUAAA	-0.605 ± 0.065	0.00983 ± 0.085
UCCCAGCAAUAUUACGUACC		0.327 ± 0.33
UCCCAGCAAUAUUACGUAGA	-0.0439 ± 0.054	0.435 ± 0.073
UCCCAGCAAUAUUACGUAGC	-2.68 ± 0.12	-2.19 ± 0.16
UCCCAGCAAUAUUACGUCAU	-4.04 ± 0.2	-2.09 ± 0.18
UCCCAGCAAUAUUACGUCCC	-3.08 ± 0.25	-0.845 ± 0.26
UCCCAGCAAUAUUACGUCGU	-1.69 ± 0.085	-0.682 ± 0.11
UCCCAGCAAUAUUACGUCUG	-3.05 ± 0.17	-2.85 ± 0.31
UCCCAGCAAUAUUACGUUCU	-3.47 ± 0.21	-2.5 ± 0.22
UCCCAGCAAUAUUACGUUGG	-3.37 ± 0.12	-1.5 ± 0.13
UCCCAGCAAUAUUACGUUGU	-4.06 ± 0.15	-1.97 ± 0.11
UCCCAGCAAUAUUACGUUUA	-2.21 ± 0.12	-1.79 ± 0.13

Sequence	self-splicing fitness (ln) (30 °C)	self-splicing fitness (ln) (37 °C)
UCCGAGCAAUAUUACGAAAG	-3.3 ± 0.33	-2.65 ± 0.32
UCCGAGCAAUAUUACGAAUA	-2.95 ± 0.25	
UCCGAGCAAUAUUACGAAUU	-3.49 ± 0.28	-2.19 ± 0.35
UCCGAGCAAUAUUACGACAA	-2.23 ± 0.46	
UCCGAGCAAUAUUACGACUA	-2.51 ± 0.28	-2.21 ± 0.27
UCCGAGCAAUAUUACGACUG	-2.56 ± 0.34	-1.76 ± 0.37
UCCGAGCAAUAUUACGAGGU	-3.89 ± 0.34	
UCCGAGCAAUAUUACGAGUU	-2.64 ± 0.2	
UCCGAGCAAUAUUACGAUAC	-4.73 ± 0.46	-2.96 ± 0.35
UCCGAGCAAUAUUACGAUUG	-3.7 ± 0.28	-1.77 ± 0.28
UCCGAGCAAUAUUACGCCUA	-2.13 ± 0.2	-2.6 ± 0.36
UCCGAGCAAUAUUACGCCUG	-2.12 ± 0.36	-1.84 ± 0.31
UCCGAGCAAUAUUACGGAAU	-1.91 ± 0.14	-1.77 ± 0.2
UCCGAGCAAUAUUACGGACU	-3.56 ± 0.21	-2.02 ± 0.14
UCCGAGCAAUAUUACGGCGG	-2.11 ± 0.14	-2.2 ± 0.15
UCCGAGCAAUAUUACGGCUA	-0.436 ± 0.096	-0.18 ± 0.1
UCCGAGCAAUAUUACGGGCG	-3.47 ± 0.35	-1.68 ± 0.36
UCCGAGCAAUAUUACGGUAU	-1.95 ± 0.15	-2.41 ± 0.23
UCCGAGCAAUAUUACGGUUA	-0.525 ± 0.058	-0.174 ± 0.063
UCCGAGCAAUAUUACGUAUA	-3.79 ± 0.29	-2.54 ± 0.24
UCCGAGCAAUAUUACGUCGC	-3.15 ± 0.28	-1.24 ± 0.3
UCCGAGCAAUAUUACGUCUG	-3.5 ± 0.24	
UCCUAGCAAUAUUACGAACU	-2.54 ± 0.19	-1.6 ± 0.23
UCCUAGCAAUAUUACGACUA	-1.23 ± 0.38	-2.73 ± 0.41
UCCUAGCAAUAUUACGAGCU	-3.57 ± 0.37	-1.99 ± 0.38

Sequence	self-splicing fitness (ln) (30 °C)	self-splicing fitness (ln) (37 °C)
UCCUAGCAAUAUUACGAGUG	-2.1 ± 0.1	-0.96 ± 0.1
UCCUAGCAAUAUUACGCACA	-2.29 ± 0.22	-1.45 ± 0.21
UCCUAGCAAUAUUACGCCAG	-3.13 ± 0.26	-2.68 ± 0.26
UCCUAGCAAUAUUACGCCAU	-2.5 ± 0.3	-0.725 ± 0.35
UCCUAGCAAUAUUACGCCCG		-2.38 ± 0.42
UCCUAGCAAUAUUACGCCGG		-1.88 ± 0.3
UCCUAGCAAUAUUACGCGCC	-2.63 ± 0.17	-2.29 ± 0.24
UCCUAGCAAUAUUACGCGGU	-2.34 ± 0.17	-1.63 ± 0.18
UCCUAGCAAUAUUACGCGUG	-4.1 ± 0.15	-2.75 ± 0.12
UCCUAGCAAUAUUACGGAUG	-4.25 ± 0.34	-2.67 ± 0.2
UCCUAGCAAUAUUACGGGAA	-1.84 ± 0.21	-1.76 ± 0.14
UCCUAGCAAUAUUACGGGAG	-2.27 ± 0.25	-2.37 ± 0.35
UCCUAGCAAUAUUACGGGCU	-2.12 ± 0.1	-1.74 ± 0.13
UCCUAGCAAUAUUACGGGUA	-0.468 ± 0.088	-0.134 ± 0.12
UCCUAGCAAUAUUACGGGUU	-2.26 ± 0.13	-1.78 ± 0.15
UCCUAGCAAUAUUACGGUCA	-0.978 ± 0.079	-0.106 ± 0.089
UCCUAGCAAUAUUACGGUGC	-2.74 ± 0.17	-2.36 ± 0.18
UCCUAGCAAUAUUACGUAAU	-2.99 ± 0.15	-2.37 ± 0.18
UCCUAGCAAUAUUACGUCCU	-3.56 ± 0.15	-1.92 ± 0.14
UCCUAGCAAUAUUACGUUAA	-3.69 ± 0.28	-2.32 ± 0.26
UCCUAGCAAUAUUACGUUAG	-3.49 ± 0.2	-1.92 ± 0.23
UCGAAGCAAUAUUACGAAGA	-2.08 ± 0.25	-0.685 ± 0.19
UCGAAGCAAUAUUACGAAUG	-2.95 ± 0.17	-1.84 ± 0.19
UCGAAGCAAUAUUACGAUUC	-4.04 ± 0.39	-1.74 ± 0.26
UCGAAGCAAUAUUACGCAAA		-3.16 ± 0.4

Sequence	self-splicing fitness (ln) (30 °C)	self-splicing fitness (ln) (37 °C)
UCGAAGCAAUAUUACGCCCC	-1.87 ± 0.44	
UCGAAGCAAUAUUACGCGAA	-2.42 ± 0.17	-0.19 ± 0.13
UCGAAGCAAUAUUACGCGCA	0.425 ± 0.26	-0.635 ± 0.21
UCGAAGCAAUAUUACGCGGU	-2.73 ± 0.3	-2.48 ± 0.36
UCGAAGCAAUAUUACGCGUG	-0.488 ± 0.07	-0.256 ± 0.078
UCGAAGCAAUAUUACGCUAA		-2.07 ± 0.36
UCGAAGCAAUAUUACGCUCG	-2.53 ± 0.31	-1.39 ± 0.27
UCGAAGCAAUAUUACGGCCA	-1.64 ± 0.16	0.195 ± 0.14
UCGAAGCAAUAUUACGGGCC	-2.98 ± 0.38	-0.79 ± 0.33
UCGAAGCAAUAUUACGGUCG	-0.668 ± 0.079	0.0856 ± 0.11
UCGAAGCAAUAUUACGGUUC	-4.34 ± 0.34	-2.79 ± 0.32
UCGAAGCAAUAUUACGUAAG	-1.85 ± 0.13	-0.0359 ± 0.13
UCGAAGCAAUAUUACGUACA	-0.691 ± 0.13	0.0696 ± 0.11
UCGAAGCAAUAUUACGUAUG	-2.78 ± 0.16	-1.33 ± 0.15
UCGAAGCAAUAUUACGUCCU	-0.664 ± 0.12	-0.253 ± 0.15
UCGAAGCAAUAUUACGUGAC	-2.44 ± 0.19	-2.88 ± 0.21
UCGAAGCAAUAUUACGUUAA	-2.99 ± 0.19	-0.482 ± 0.14
UCGAAGCAAUAUUACGUUUA	-3.07 ± 0.45	-0.87 ± 0.29
UCGCAGCAAUAUUACGAACC	-3.4 ± 0.4	-2.44 ± 0.41
UCGCAGCAAUAUUACGACCG	-0.544 ± 0.11	-0.235 ± 0.15
UCGCAGCAAUAUUACGACUC	-3.5 ± 0.27	-2.32 ± 0.27
UCGCAGCAAUAUUACGAGAG	-4.55 ± 0.36	-2.39 ± 0.18
UCGCAGCAAUAUUACGCACG	-2.26 ± 0.16	-0.255 ± 0.15
UCGCAGCAAUAUUACGGAUG	-1.44 ± 0.13	-2.55 ± 0.16
